Source: article PMC6543838, “Assessing Cofactor Usage in Pseudoclostridium thermosuccinogenes via Heterologous Expression of Central Metabolic Enzymes” (Frontiers in Microbiology, 2019)

How the values were obtained:
purified protein [1] = substrate: Nc1nc2c(ncn2[C@@H]2O[C@H](COP(=O)(O)OP(=O)(O)OP(=O)(O)O)[C@@H](O)[C@H]2O)c(=O)[nH]1; test: purified protein; assay type: biochemical, Clostridium thermosuccinogenes; details: 5 mM D-galactose, 10 mM MgCl2, 100 mM KCl, MOPS pH 7.0, 55 °C
purified protein [2] = substrate: Nc1ncnc2c1ncn2[C@@H]1O[C@H](COP(=O)(O)OP(=O)(O)OP(=O)(O)O)[C@@H](O)[C@H]1O; test: purified protein; assay type: biochemical, Clostridium thermosuccinogenes; details: 5 mM D-galactose, 10 mM MgCl2, 100 mM KCl, MOPS pH 7.0, 55 °C

B1: galactokinase (GalK), CDQ83_02810 (Clostridium thermosuccinogenes) (protein)
chain: DINQLKQKFIEIFGDNGEALRVFSSPGRVNLIGEHTDYNGGYVFPAALTLSSTVVARPRKDRQINLIATDLGIMVSASLDELEKHKDIKWGNYQLGVADELQKAGYKLVGCDMLFHDTVPLGSGLSSSAAIEVVTAITLVTLGNEAHGVNSGIDMVEMAKISQTAEHNYVGVNCGIMDQFASAMGKANHAIFLDCKDLSFEHVPLDLKGYRIVISNTKKKRSLGAVKYNERRSECEAGLEILKKAIPGISCLGEISAEQFEKNKHLITDEVVRKRVEHVIYEDDRVLKSVEALKKGDLHSFGRYMIESHNSLRDLYEVTGLELDTLVEEALKIDGVIGSRMTGAGFGGCTVSIVREDAVDRFIEDVGSAYTQKTGITAEFYVSEVGDGGREIK
notes: full length, N-terminal His6-TEV tag kept, E. coli Rosetta, HisTrap purified
Km (purified protein [1]): 0.035 mM
kcat (purified protein [1]): 2.56 ⋅ 10^3 U/umol of
Km (purified protein [2]): 3.98 mM
kcat (purified protein [2]): 1.07 ⋅ 10^3 U/umol of
